Data taken from article PMC4232046, “The Janus transcription factor HapX controls fungal adaptation to both iron starvation and iron excess”.

Target: HapX(24-158) (Aspergillus fumigatus, UniProt Q4WER3 24-158)
Assay: SPR; HapX alone, no CBC; SPR Biacore T200, 25 C; 10 mM phosphate pH 7.4, 2.7 mM KCl, 137 mM NaCl, 1 mM DTT, 0.005% surfactant P20, 10 ug/ml poly(dI-dC); biotin-DNA on streptavidin CM3 chip
Settings: protein: recombinant; tags: MBP fusion cleaved with TEV; extended N-terminus with TEV site; chain copies: 2; label: 5' biotin on strand 1; blunt

HapX(24-158), sequence (Q4WER3 24-158): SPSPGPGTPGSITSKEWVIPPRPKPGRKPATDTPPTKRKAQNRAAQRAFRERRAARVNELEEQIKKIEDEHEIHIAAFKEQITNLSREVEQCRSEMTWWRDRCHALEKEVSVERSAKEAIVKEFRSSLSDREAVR

B1: cccAp-369-37 (dsDNA)
DNA 1: AAATCCACCAATCAACGCCTCCGTGATTGTCAGCAAT
DNA 2: ATTGCTGACAATCACGGAGGCGTTGATTGGTGGATTT
- Kd: 171 nM
